Experimental data from the DeepSol protein solubility set.

Test: soluble on expression in E. coli; label from the status in PepcDB or PDB records

| Sequence | soluble on expression in E. coli |
| --- | --- |
| MSLYSENDISNSIKNGILYLEDPVNHEWYPHYFVLTSSKIYYSEETSSDQGNEDEEEPKEVSSSTELHSNEKWFHGKLGAGRDGRHIAERLLTEYCIETGAPDGSFLVRESETFVGDYTLSFWRNGKVQHCRIHSRQDAGTPKFFLTDNLVFDSLYDLITHYQQVPLRCNEFEMRLSEPVPQTNAHESKEWYHASLTRAQAEHMLMRVPRDGAFLVRKRNEPNSYAISFRAEGKIKHCRVQQEGQTVMLGNSEFDSLVDLISYYEKHPLYRKMKLRYPINEEALEKIGTAEPDYGALYEGRNPGFYVEANPMPTFKCAVKALFDYKAQREDELTFIKSAIIQNVEKQEGGWWRGDYGGKKQLWFPSNYVEEMVNEGHHHHHH | soluble |
| MTIEDLQAFMKREFPQLGEAFEIVTVDEGSATMRLHADAQHLRPGGTVSGPSLFALADVAAYAAILAHIGPVALAVTTNLNINFLRKPSPGTVEAVAHLLKLGKRLAVLDISLTDGANGELVAHATATYSIPPRLEHHHHHH | soluble |
| MSLKDLQKYQGIIPAFYACYDDKGDICPERVKALTNYFIDKGVQGLYVNGSSGECIYQSVADRKLVLENVMSVAKGKLTVIAHVACNNTKDSVELAMHAEAIGVDAIAAIPPIYFRLPEYAIADYWNTISQAAPQTDFIIYNIPQLAGVALTSDLYRKMLQNPQVIGVKNSSMPVQDIQNFVAIGGENHIVFNGPDEQFLGGRLMGAAAGIGGTYGVMPELYLTLNQLIVDKDLEKARELQFTINDIITKLCSGHGNMYAVIKAVLEINEQLTIGSVRLPLASVTEEDKPIIKEAAEEGHHHHHH | soluble |
| MTELARLKFYATQPHTCSYLPEEQATTLFLDPSQPMDVQVYADLSDMGFRRSGDHLYRPHCQNCSACVPARIPVNLFVPDRQQKRILKRNADIQVSSAKPVFTQEYFDLYQRYIEQRHADGDMFPPSREQFSTFLVRDLPFSRFYEFRVDQRLLAVAVTDLLPNGLSAVYTFYEPDEERRSLGRYAILWQIGEATRLQLQAVYLGYWIKNCKKMNYKTQYRPIELLTNQRWVTLYLEHHHHHH | not soluble |
| MGSDKIHHHHHHMFKNTFQSGFLSILYSIGSKPLQIWDKKVRNGHIKRITDNDIQSLVLEIEGTNVSTTYITCPADPKKTLGIKLPFLVMIIKNLKKYFTFEVQVLDDKNVRRRFRASNYQSTTRVKPFICTMPMRLDDGWNQIQFNLLDFTRRAYGTNYIETLRVQIHANCRIRRVYFSDRLYSEDELPAEFKLYLPVQNKAKQ | not soluble |
| MMKKLFLDTHSASGEIKLTDGLLYWFPQFLTPIQADQAFQQMLTHLDWQQKSIRLFGKSVLQPRLIAWYGEKGYRYSGLSLSAQPFPPPLLTLKTQCEQAAQAPFNSVLANLYRDGQDSMGWHQDNEPELGSNPVIASLSLGESRRFLLRHHKDHALQVECELNHGDLLIMAGNTQHFWQHAIPKTRQTKQTRINLTFRNILLEHHHHHH | soluble |
| MGSDKIHHHHHHMRLVQYRMPDGSRRVGRVSDDDNHLHPLDKTGSVLELAEAAIAEDMSIASLVEKRTAAATIDYDALLRNGRVLAPVDHPEPARFLVTGTGLTHTGSAAARNQMHVLTHGDGAEESDSLKIFRMGLEGGKPGAGKIGIQPEWFFKGVGTCVVPPGAPLPMPAFAKAGAEEAEIVGLYLNGPDGHPYRIGYALGNEYSDHVTEGENYLYLAHSKLRSCSIGPELLIGDLPEEVRGHSRILRDGTVIWEQEFLSGEAHMSHSIANLEHFHFRYPMHRRAGDLHAYFFGAAVMSYASGIKTASGDEYEIQAQAFGKPLRNRMVSVPDEGLVTVTPL | not soluble |
| MGSDKIHHHHHHAISVGNLTFSLPAEADFASKRVVNNNKSARLYRIAVSAIDRPGGSEVRSRPVDGELLFAPRQLVLQAGESEYFKFYYHGPRDNRERYYRVSFREIPTRNLTRRSPTGGEVSMEPVVVMDTILVVRPREVQFKWSFDKVAGTVSNTGNTWFKLLIKPGCDSTEEEGDAWYLRPGDVVRQPALRQPGNHYLVYNDKFIKISDTCPLKPRPAE | not soluble |
| ALKQKIIGNGEKRVVTYAPTWREDDFISVGHYHFRWHFSLKKMMGLLPEDVMLLIRPHYLVTDRIDIKGFEDRVVIDSTTDMNEIYLITDLMVTDYSSVMFDFAILKRPMLFFAYDLEYYRDDLRGFYFDYYTELPGSIVTDETHLLAEIDQLLQNNFAELDPERFNKFAKRFVSWERGTAAQQVIEKINYRRDEK | not soluble |
| MGSSHHHHHHGGTGENLYFQGGSGKIFSTLGNPGTLAATKPKKGEVVLASPEATVSKYKEAIKQHKKALKELHACTERFTHALAAVAASLQLLTSDTHIPVMVQSSGALASGIEEVQDGVLLQDLMEELDYSLSTRFKQIAEDQRELKESRERKSKAERTLMLLRSQCDKLQLKKDVDAKVQALYLAKTQKRDEHEVECTRLKAEFEDTFQDFTKRFGILVYEDMKGLTVHLHRVLSALSYQVRKCKDNIMAHPITPKPIAEMS | not soluble |
| MLITISVARSENYYCVQVASSEKLEDLIPLFEKFKNMDNVRIEKIGGFYTLRIGFYLNKSDVLKILPEIKEKYRDAFVRVCEYDLSRVVFPKPEKVITLEQQEIEESKTTKENFLMLLEKNIEELKKLTEIIARGNTTKVKPFEKLESTVVEMYKQKEKSYKRAFPLYINGEFRYRGKALTGENLLGDKWYSYLGLKLSFFRRGFADFKYEKERAKFAKLFSEFDIQKEYTYLLAFQSQEEVFLKGLKYELGVVESEKNKTLSLLKDWVKFTESYDKSLGFPYRELIKKEELEGIESVSNGFFLKPMKINVEEFMKYYEKRKKDVEEYLKKFEIKTTDKWFYLRHTDLDVFARYYFAGKDGNTRDFWALGLRFELPIPYIITDLGKVDKLEILSFKERARLSYATTYSFLFDYISRINRNYSNIVNHLEQINVNFLEIEREIYFWKNGLREANYTLILRNLLDTYHRLEQLIYLKYINYVYIQKLIYFMDIKEEEIIRRILDG | not soluble |
| MTDTNSQWIEMNLQRQRKMLEDKQKQKRHQSAGSVRTTSTAMSMNSMKDYPTFDNSLPFSISDNSSVSVSMNTPLIPTQDPIAQPRMQSMPRQQPQQVQESLISIGDYPDNDINAKLSKVNLTSCVVSDDEDEDKRSYADSPWNTDVVADRIPSEVLPDYNFIKNNLAKFVEDPAVEHCLYKCSITRQKSGVDKGMFPTYFLHLEEFDTDKRQKIFLLAARKRKKSTTANYLLSTDPTNLSREGEGYCAKVRSNALGTQFTVYDSGQNPKKTTNHAAIRQELAAVIYETNVLGFKGPRKMTIVMPGIEPPTENRPAVRCPVRPIQDKHTLLERYRLNDLDSLKILSNKSPQWNDETQSYVLNFHGRVTQASVKNFQIIHQSSPEYIVMQFGRISDDEFTMDFRYPLSAVQAFGIAMTSFHGKLACE | not soluble |
| GMQQPTASVVSYVAEYHKATETTMGRYKKVIEITGHDEVAAKLLEGLIDAGTRYFSKVVEMEHRMASARFRLDGEELRELTETLDRSRRLAHESLISSLHVFNRYIVKEYGEELKEAGIEGGIFPKPEANRDRIAIADWAGELLTGIYENRHR | soluble |
| QETGISMIGERTNSNGSKAFREAMLSGDWEKCVDIAKQQTRDGAHMLDLCVDYVGRDGTADMATLAALLATSSTLPIMIDSTEPEVIRTGLEHLGGRSIVNSVNFEDGDGPESRYQRIMKLVKQHGAAVVALTIDEEGQARTAEHKVRIAKRLIDDITGSYGLDIKDIVVDCLTFPISTGQEETRRDGIETIEAIRELKKLYPEIHTTLGLSNISFGLNPAARQVLNSVFLNECIEAGLDSAIAHSSKILPMNRIDDRQREVALDMVYDRRTEDYDPLQEFMQLFEGVSAAD | not soluble |
| MGSDKIHHHHHHMSIPSTLLGLSGGQFNEIDWSNCAIVMIDFQNEYVDGAMPLGDAGNKATANARLLLYKARNKNIPIFHVAHHGQDNDKIFNPLSSKVDIIDSLQPLDDEKTIIKMHPNAFYDTELQALITSAGKQQIIFAGFMSHMCVSSSVRAAFDLGFESFVCHDACATRDLPSVAGQVITASTVHDSAMAALQDRFAALVATDKLTNS | not soluble |
| MGSDKIHHHHHHAIKNCQIHTFSLSHDSVSGLDTVKFTIDQLTGRIFNIDSLPFGTKIEKVVCKIGFANSSVIGGVEASPEAYPDSTYYLSSLSDSIDFSAPVKFVVHAYDQVTTKVYMAQVNIHQVVPDSMVWSMYANPMIGITVKDQKVVTYDYNGSENYFMYVKPAESGKPYQLYYAPVSAPKGWQSLSLTGLPSDGLLISQITEYNNALYVPATNGTLYRSEDGLTWSAVENAPSVKYVLGSVKQGTKQPSALATIVDQEGKLAFYAMNESMEWIAGDAVPSGFPVTGFSNLQYAAMYHEYLMTASGRTVDNQVVNTTWATMDGISWALMASGDANFTKREGAMITNYDDKFFLIGGIDASNKALKDMYQSIDYGISWSLIDSMVVLPTDYAARGFSSIIVDKENFVNIFGGKISTGSNDLNQLWRGRINRLIPKE | not soluble |
| MAVSTVTGAAGIGLATLAADGSVLDTWFPAPELTESGTSATSRLAVSDVPVELAALIGRDDDRRTETIAVRTVIGSLDDVAADPYDAYLRLHLLSHRLVAPHGLNAGGLFGVLTNVVWTNHGPCAIDGFEAVRARLRRRGPVTVYGVDKFPRMVDYVVPTGVRIADADRVRLGAHLAPGTTVMHEGFVNYNAGTLGASMVEGRISAGVVVGDGSDVGGGASIMGTLSGGGTHVISIGKRCLLGANSGLGISLGDDCVVEAGLYVTAGTRVTMPDSNSVKARELSGSSNLLFRRNSVSGAVEVLARDGQGIALNEDLHANGVPRGLEHHHHHH | soluble |
| MGSSHHHHHHSQDPTVPAQLQFSAKTLDGHDFHGESLLGKPAVLWFWAPWCPTCQGEAPVVGQVAASHPEVTFVGVAGLDQVPAMQEFVNKYPVKTFTQLADTDGSVWANFGVTQQPAYAFVDPHGNVDVVRGRMSQDELTRRVTALTSR | soluble |
| MAIISSLANHLLIAMPSLKDPNFERSVVYLCEHNEQGSVGLIINRPLQFPLSIVFEQLQIEPIRVEKNGLPLLFGGPVQPERGFVIHKQMGGWRSSLFLQDEVTVTTSNDIIRAIAYDEGPKDVLITLGYAAWTEQQLEREIMSNTWLVCPYKSEILYEVPFEERWEYAGLTLGIKMNQLSSDAGHALEHHHHHH | not soluble |
| MASCVLTHSPPPPMTAKSPPIPAPSPEQIGLRIRALRKRQKRTLAWLSAQCGLDKGFLSRLERGEKSASVGTLHTVAGALGSSLSALLGEADPQTEIQIVRAADRHRMTTAPGPGEHIYEAITLGSSHSGLSVMVVEVGTHGAHTEAHHGGDELIFVLDGRIRVHFGGHTVLLERDDSVRFPGYLPHSLSAEGRKLARALVVIASG | not soluble |
| MRGSVSQEEVKKWAESLENLINHECGLAAFKAFLKSEYSEENIDFWISCEEYKKIKSPSKLSPKAKKIYNEFISVQATKEVNLDSCTREETSRNMLEPTITCFDEAQKKIFNLMEKDSYRRFLKSRFYLDLTNPSSCGAEKQKGAKSSADCTSLVPQCAHHHHHHP | soluble |
| MKIAVVGGGIVGLSTAFELSSRGHSVHVFDPNPASGASHFAGGMLAPAAEVQFQQDPLFPLMKRAGKLWPDMVRRVAQRTNLPTGYRTEGTLVVAADRADAEHLKQLRATQEAAGMDVRPITTRQARGLEPALGPRLSAAVHIPNDTQVAPRVFLTALLDALDDCGVGVIKEKITDLEPLYQQFD | not soluble |
